Article PMC9496473, “Generation and Validation of an Anti-Human PANK3 Mouse Monoclonal Antibody” (Biomolecules, 2022)

Molecular target: the molecule itself
Assay: SEC; Ni-NTA eluate of His-PANK3 further subjected to size-exclusion gel chromatography; all purification steps at 4 °C

B1: His-tagged recombinant human PANK3 protein (residues Pro12 to Asn368) (enzyme, UniProt Q9H999 12-368, looked up)
chain: PWFGMDIGGTLVKLSYFEPIDITAEEEQEEVESLKSIRKYLTSNVAYGSTGIRDVHLELKDLTLFGRRGNLHFIRFPTQDLPTFIQMGRDKNFSTLQTVLCATGGGAYKFEKDFRTIGNLHLHKLDELDCLVKGLLYIDSVSFNGQAECYYFANASEPERCQKMPFNLDDPYPLLVVNIGSGVSILAVHSKDNYKRVTGTSLGGGTFLGLCSLLTGCESFEEALEMASKGDSTQADKLVRDIYGGDYERFGLPGWAVASSFGNMIYKEKRESVSKEDLARATLVTITNNIGSVARMCAVNEKINRVVFVGNFLRVNTLSMKLLAYALDYWSKGQLKALFLEHEGYFGAVGALLGLPN
notes: Pantothenate kinase 3 (PANK3), human, residues Pro12 to Asn368, from a pET28a plasmid bought from Addgene (25518); also called His-PANK3; recombinant PANK3; source: E. coli BL21 (DE3) and E. coli Rosetta2 (DE3), purified (Ni-NTA, size-exclusion chromatography); not shown: His6, N-terminal, kept
B1 was tested, and the “stoichiometry N” value was 2.
